Laboratory results: US20230322953A1 (HARBOUR BIOMED SHANGHAI, published 2023)

T1: human BCMA (human, UniProt Q02223 1-184)
T1 construct: whole, on cells; also called hBCMA; TNFRSF17
T1 sequence (looked up): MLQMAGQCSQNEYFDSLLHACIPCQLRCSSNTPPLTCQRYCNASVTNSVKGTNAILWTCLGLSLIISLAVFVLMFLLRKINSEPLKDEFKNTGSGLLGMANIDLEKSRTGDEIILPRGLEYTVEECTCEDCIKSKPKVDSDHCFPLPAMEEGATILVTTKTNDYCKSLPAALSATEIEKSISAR


Molecular target: T1, human BCMA
Experiment: FACS on NCI-H929 cells
Experimental: This example is intended to investigate the binding activity of anti-BCMA HCAb antibodies to human and cynomolgus monkey BCMAs. […] Specifically, HEK293T/hBCMA cells and HEK293T/cyno BCMA cells were digested and resuspended in a DMEM complete medium. In addition, NCI-H929 cell suspension was collected. The density of each of the three cells was adjusted to 1×10⁶ cells/mL. […] The cells were incubated at 4° C. for 1 h away from light. Thereafter, the cells in each well were rinsed twice with 100 μL of pre-cooled PBS, and centrifuged at 500 g at 4° C. for 5 min, and then the supernatant was discarded. […] The cells in each well were rinsed twice with 100 μL of pre-cooled PBS, and centrifuged at 500 g at 4° C. for 5 min, and then the supernatant was discarded. Finally, the cells in each well were resuspended in 200 μL of pre-cooled PBS. Fluorescence signal values were read using a BD FACS CANTOII flow cytometer or an ACEA NovoCyte flow cytometer, and the data were processed and analyzed using FlowJo v10 (FlowJo, LLC) software. The data were processed and analyzed by plotting using GraphPad Prism 8 software, and binding curves of the antibodies to target cells, EC₅₀ values and other parameters were obtained through four-parameter nonlinear fitting.

| Binder | EC50 | Maximum MFI |
| --- | --- | --- |
| PR001999 (bispecific antibody, IgG1, CD3 scFv of PR000510, BCMA VH of PR000940; IgG1 knob/hole, AAG) chain 1: QAVVTQEPSLTVSPGGTVTLTCRSSTGAVTTSNYANWVQQKPGQAPRGLIGGTNKRAPWTPARFSGSLLGDKAALTLLGAQPEDEAEYFCALWYSNLWVFGGGTKLTVLGGGQSGQGGSGGGGSEVQLVESGGGLVQPGGSLKLSCAASGFTFNTYAMNWVRQASGKGLEWVGRIRSKYNNYATYYADSVKDRFTISRDDSKSTLYLQMNSLKTEDTAVYYCVRHGNFGNSYVSWFAYWGQGTLVTVSSASEPKSSDKTHTCPPCPAPEAAGGPSVFLFPPKPKDTLMISRTPEVTCVVVDVSHEDPEVKFNWYVDGVEVHNAKTKPREEQYNSTYRVVSVLTVLHQDWLNGKEYKCKVSNKALGAPIEKTISKAKGQPREPQVYTLPPCREEMTKNQVSLWCLVKGFYPSDIAVEWESNGQPENNYKTTPPVLDSDGSFFLYSKLTVDKSRWQQGNVFSCSVMHEALHNHYTQKSLSLSPGK chain 2: EVQLLESGGGLVQPGGSLRLSCAASGFTFSSYAMIWVRQAPGKGLEWVSGISESGGSTYYADSVKGRFTISRDNSKNTLYLQMNSLRAEDTAVYFCVKDLDDILTGYYKDYWGQGTLVTVSSASEPKSSDKTHTCPPCPAPEAAGGPSVFLFPPKPKDTLMISRTPEVTCVVVDVSHEDPEVKFNWYVDGVEVHNAKTKPREEQYNSTYRVVSVLTVLHQDWLNGKEYKCKVSNKALGAPIEKTISKAKGQPREPQVCTLPPSREEMTKNQVSLSCAVKGFYPSDIAVEWESNGQPENNYKTTPPVLDSDGSFFLVSKLTVDKSRWQQGNVFSCSVMHEALHNHYTQKSLSLSPGK |  | 3480 |
| PR002002 (bispecific antibody, IgG1, BCMAxCD3, scFv(VL-VH)-Fc-VH (structure 20); CD3 scFv of PR000510, BCMA VH of PR001046; IgG1 knob/hole, AAG) chain 1: QAVVTQEPSLTVSPGGTVTLTCRSSTGAVTTSNYANWVQQKPGQAPRGLIGGTNKRAPWTPARFSGSLLGDKAALTLLGAQPEDEAEYFCALWYSNLWVFGGGTKLTVLGGGQSGQGGSGGGGSEVQLVESGGGLVQPGGSLKLSCAASGFTFNTYAMNWVRQASGKGLEWVGRIRSKYNNYATYYADSVKDRFTISRDDSKSTLYLQMNSLKTEDTAVYYCVRHGNFGNSYVSWFAYWGQGTLVTVSSASEPKSSDKTHTCPPCPAPEAAGGPSVFLFPPKPKDTLMISRTPEVTCVVVDVSHEDPEVKFNWYVDGVEVHNAKTKPREEQYNSTYRVVSVLTVLHQDWLNGKEYKCKVSNKALGAPIEKTISKAKGQPREPQVYTLPPCREEMTKNQVSLWCLVKGFYPSDIAVEWESNGQPENNYKTTPPVLDSDGSFFLYSKLTVDKSRWQQGNVFSCSVMHEALHNHYTQKSLSLSPGK chain 2: EVQLVETGGGLIQPGGSLRLSCAASGFTVSDNYMTWVRQAPGKGLEWVSVIFSGGNTYYADSVKGRFTISRDNAKNTLYLQMNSLRAEDTALYYCARRNYDDTRGTDVFDIWGQGTMVTVSSASEPKSSDKTHTCPPCPAPEAAGGPSVFLFPPKPKDTLMISRTPEVTCVVVDVSHEDPEVKFNWYVDGVEVHNAKTKPREEQYNSTYRVVSVLTVLHQDWLNGKEYKCKVSNKALGAPIEKTISKAKGQPREPQVCTLPPSREEMTKNQVSLSCAVKGFYPSDIAVEWESNGQPENNYKTTPPVLDSDGSFFLVSKLTVDKSRWQQGNVFSCSVMHEALHNHYTQKSLSLSPGK |  | 4500 |
| PR002000 (bispecific antibody, IgG1, BCMAxCD3, scFv(VL-VH)-Fc-VH (structure 20); CD3 scFv of PR000510, BCMA VH of PR000943; IgG1 knob/hole, AAG) chain 1: QAVVTQEPSLTVSPGGTVTLTCRSSTGAVTTSNYANWVQQKPGQAPRGLIGGTNKRAPWTPARFSGSLLGDKAALTLLGAQPEDEAEYFCALWYSNLWVFGGGTKLTVLGGGQSGQGGSGGGGSEVQLVESGGGLVQPGGSLKLSCAASGFTFNTYAMNWVRQASGKGLEWVGRIRSKYNNYATYYADSVKDRFTISRDDSKSTLYLQMNSLKTEDTAVYYCVRHGNFGNSYVSWFAYWGQGTLVTVSSASEPKSSDKTHTCPPCPAPEAAGGPSVFLFPPKPKDTLMISRTPEVTCVVVDVSHEDPEVKFNWYVDGVEVHNAKTKPREEQYNSTYRVVSVLTVLHQDWLNGKEYKCKVSNKALGAPIEKTISKAKGQPREPQVYTLPPCREEMTKNQVSLWCLVKGFYPSDIAVEWESNGQPENNYKTTPPVLDSDGSFFLYSKLTVDKSRWQQGNVFSCSVMHEALHNHYTQKSLSLSPGK chain 2: EVQLVETGGGLIQPGGSLRLSCAASGFPVSSNYMSWVRQAPGKGLEWVSVIFSGGRTYYADSVKGRFTISRDNSKNTLYLQMNSLRAEDTAVYYCARRNWIDGRDAFDIWGQGTMVTVSSASEPKSSDKTHTCPPCPAPEAAGGPSVFLFPPKPKDTLMISRTPEVTCVVVDVSHEDPEVKFNWYVDGVEVHNAKTKPREEQYNSTYRVVSVLTVLHQDWLNGKEYKCKVSNKALGAPIEKTISKAKGQPREPQVCTLPPSREEMTKNQVSLSCAVKGFYPSDIAVEWESNGQPENNYKTTPPVLDSDGSFFLVSKLTVDKSRWQQGNVFSCSVMHEALHNHYTQKSLSLSPGK |  | 4640 |

Next, values leading:

| EC50 | Maximum MFI | Binder |
| --- | --- | --- |
| 1.5 nM | 11000 | PR003874 (bispecific antibody, human IgG1, lambda, L234A L235A, BCMAxCD3, Fab-Fc-VH (structure 11); CD3 Fab of PR003886, BCMA VH of PR004569; IgG1 knob/hole, LALA) light: QAVVTQEPSLTVSPGGTVTLTCRSSTGAVTTSNYANWVQQKPGQAPRGLIGGTNKRAPWTPARFSGSLLGDKAALTLLGAQPEDEAEYFCALWYSNLWVFGGGTKLTVLGQPKAAPSVTLFPPSSEELQANKATLVCLISDFYPGAVTVAWKADSSPVKAGVETTTPSKQSNNKYAASSYLSLTPEQWKSHRSYSCQVTHEGSTVEKTVAPTECS heavy: not shown EVQLVETGGGLIQPGGSLRLSCAASGFTVSDSYMTWVRQAPGKGLEWVSVIFSGGRTYYSDSVKGRFTISRDNAKNTLYLQMNSLRAEDTALYYCARRNYDQTRGTDVFDIWGQGTMVTVSSASEPKSSDKTHTCPPCPAPEAAGGPSVFLFPPKPKDTLMISRTPEVTCVVVDVSHEDPEVKFNWYVDGVEVHNAKTKPREEQYNSTYRVVSVLTVLHQDWLNGKEYKCKVSNKALPAPIEKTISKAKGQPREPQVCTLPPSREEMTKNQVSLSCAVKGFYPSDIAVEWESNGQPENNYKTTPPVLDSDGSFFLVSKLTVDKSRWQQGNVFSCSVMHEALHNHYTQKSLSLSPGK |
| 2.3 nM | 10900 | PR003876 (bispecific antibody, human IgG1, lambda, L234A L235A, BCMAxCD3, Fab-Fc-VH (structure 11); CD3 Fab of PR003886, BCMA VH of PR004571; IgG1 knob/hole, LALA) light: QAVVTQEPSLTVSPGGTVTLTCRSSTGAVTTSNYANWVQQKPGQAPRGLIGGTNKRAPWTPARFSGSLLGDKAALTLLGAQPEDEAEYFCALWYSNLWVFGGGTKLTVLGQPKAAPSVTLFPPSSEELQANKATLVCLISDFYPGAVTVAWKADSSPVKAGVETTTPSKQSNNKYAASSYLSLTPEQWKSHRSYSCQVTHEGSTVEKTVAPTECS heavy: not shown EVQLVETGGGLIQPGGSLRLSCAASGFTVSDSYMTWVRQAPGKGLEWVSVIFSGGKTYYSDSVKGRFTISRDNAKNTLYLQMNSLRAEDTALYYCARRNYDQTIGTDVFDIWGQGTMVTVSSASEPKSSDKTHTCPPCPAPEAAGGPSVFLFPPKPKDTLMISRTPEVTCVVVDVSHEDPEVKFNWYVDGVEVHNAKTKPREEQYNSTYRVVSVLTVLHQDWLNGKEYKCKVSNKALPAPIEKTISKAKGQPREPQVCTLPPSREEMTKNQVSLSCAVKGFYPSDIAVEWESNGQPENNYKTTPPVLDSDGSFFLVSKLTVDKSRWQQGNVFSCSVMHEALHNHYTQKSLSLSPGK |
| 2.1 nM | 10800 | PR003879 (bispecific antibody, human IgG1, lambda, L234A L235A, BCMAxCD3, Fab-Fc-VH (structure 11); CD3 Fab of PR003886, BCMA VH of PR004574; IgG1 knob/hole, LALA) light: QAVVTQEPSLTVSPGGTVTLTCRSSTGAVTTSNYANWVQQKPGQAPRGLIGGTNKRAPWTPARFSGSLLGDKAALTLLGAQPEDEAEYFCALWYSNLWVFGGGTKLTVLGQPKAAPSVTLFPPSSEELQANKATLVCLISDFYPGAVTVAWKADSSPVKAGVETTTPSKQSNNKYAASSYLSLTPEQWKSHRSYSCQVTHEGSTVEKTVAPTECS heavy: not shown EVQLVETGGGLIQPGGSLRLSCAASGFTVSDAYMTWVRQAPGKGLEWVSVIFSGGRTYYSDSVKGRFTISRDNAKNTLYLQMNSLRAEDTALYYCARRNYDQTRGTDVFDIWGQGTMVTVSSASEPKSSDKTHTCPPCPAPEAAGGPSVFLFPPKPKDTLMISRTPEVTCVVVDVSHEDPEVKFNWYVDGVEVHNAKTKPREEQYNSTYRVVSVLTVLHQDWLNGKEYKCKVSNKALPAPIEKTISKAKGQPREPQVCTLPPSREEMTKNQVSLSCAVKGFYPSDIAVEWESNGQPENNYKTTPPVLDSDGSFFLVSKLTVDKSRWQQGNVFSCSVMHEALHNHYTQKSLSLSPGK |
